US20150299314A1 (TORAY INDUSTRIES, published 2015)

T1: CAPRIN-1 protein expressed on the cell surface of human cancer cells (human, UniProt Q14444 2-709)
T1 construct: whole, on cells; Target of all flow cytometry and ADCC assays; the cell line is named under assay; also called human CAPRIN-1; cytoplasmic- and proliferation-associated protein 1
T1 sequence (looked up): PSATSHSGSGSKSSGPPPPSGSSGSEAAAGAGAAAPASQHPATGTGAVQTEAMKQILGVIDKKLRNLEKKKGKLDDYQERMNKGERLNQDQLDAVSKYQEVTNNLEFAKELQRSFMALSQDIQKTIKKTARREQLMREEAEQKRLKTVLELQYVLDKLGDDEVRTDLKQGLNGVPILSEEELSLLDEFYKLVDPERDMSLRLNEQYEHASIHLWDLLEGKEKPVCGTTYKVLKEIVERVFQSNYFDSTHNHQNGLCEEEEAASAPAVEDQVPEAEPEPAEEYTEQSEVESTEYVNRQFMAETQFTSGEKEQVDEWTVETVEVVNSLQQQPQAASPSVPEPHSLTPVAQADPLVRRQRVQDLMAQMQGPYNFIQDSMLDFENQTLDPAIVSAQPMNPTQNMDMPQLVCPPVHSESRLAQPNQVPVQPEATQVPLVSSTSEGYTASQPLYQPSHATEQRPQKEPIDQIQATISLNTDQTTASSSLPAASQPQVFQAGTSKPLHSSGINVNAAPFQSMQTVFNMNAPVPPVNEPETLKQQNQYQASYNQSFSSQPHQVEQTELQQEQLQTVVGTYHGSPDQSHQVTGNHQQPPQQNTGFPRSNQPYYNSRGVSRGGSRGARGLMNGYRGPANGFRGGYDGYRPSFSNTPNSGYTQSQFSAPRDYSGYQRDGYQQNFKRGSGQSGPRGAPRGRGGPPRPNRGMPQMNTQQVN

B1: mouse-chicken chimeric antibody #2 (antibody, mouse IgG1, V domains shown)
VH: AVTLDESGGGLQTPGGGLSLVCKASGFTFSSFDMGWVRQAPGKGLEFVAQINDAGSRTWYATAVKGRATISRDNGQTTVRLQLNNLRAEDTGTYYCTRGSGYVGAGAIDAWGHGTEVIVS
VL: AALTQPSSVSANPGETVKITCSGGSGYYGWYQQQKSPGSAPVTVIYQNDKRPSDIPSRFSGSGSGSTNTLTITGVQAEDEAVYFCGRYDSTDSGIFGAGTTLTVL
notes: also called anti-CAPRIN-1 mouse-chicken chimeric antibody #2
B2: mouse monoclonal antibody #6 (antibody)
chain 1: DAELVKPGASVKISCKASGYTFTDHSIHWVQQKPEQGLEWIGYISPGNGNIKYNEKFKGKATLTADKSSSTAYMQLNSLTSEDSAVYFCKRSLGRGGPYYFDYWGQGTTVTVSS
chain 2: DIVLTQAAPSLPVTPGESVSISCRSSKSLLHSNGNTYLYWFLQRPGQSPQLLIYRMSNLASGVPDRFSGSGSGTAFTLRISRVEAEDVGVYYCMQHREYPVTFGSGPN
B3: mouse anti-CAPRIN-1 antibody #33 (antibody)
chain 1: GPGLVKPSQSLSLTCSVTGYSITSGYYWNWIRQFPGNKLEWMGYISYDGSNNYNPSLKNRISITRDTSKNQFFLKLNSVTTEDTATYYCATGMAWFAYW
chain 2: not shown
B4: mouse monoclonal antibody #8 (antibody, V domains shown)
VH: GGGLVKPGGSLKLSCAASGFAFSSYDMSWIRQTPEKRLEWVAYISSGAGSTYYPDTVKGRFTVSRDNAKNTLYLQMSSLKSEDTAMYYCARHFYRFDYWGQGTTVTVSS
VL: SIVMTQTPKFLLVSAGDRITITCKASQSVSNDVAWYQQKPGQSPKLLIYYASNRYTGVPDRFTGSGYGTDFTFTISTVQAEDLAVYFCQQDDRFPLTFGAGPS
notes: mouse hybridoma antibody; also called anti-CAPRIN-1 mouse monoclonal antibody #8; anti-CAPRIN-1 monoclonal antibody #8
B5: mouse-chicken chimeric antibody #3 (antibody, mouse IgG1, V domains shown)
VH: AVTLDESGGGLQTPGGALSLVCKASGFTFSGYDMLWVRQAPGKGLEWVAGIGSTGGGTDYGAAVKGRATISRDNGQSTVRLQLNNLRAEDTATYYCAKVAGGCNSGYCRDSPGSIDAWGHGTEVIVS
VL: AVTQQPASVSANPGETVKITCSGGGSRNYYGWYQQKSPGSVPVTVIYYDDQRPSNIPSRFSGALSGSTSTLTITGVQADDEAVYFCGSADSNTYEGSFGAGTTLTVL
notes: also called anti-CAPRIN-1 mouse-chicken chimeric antibody #3
B6: mouse monoclonal antibody #12 (antibody, V domains shown)
VH: EVQLHQFGAELVKPGASVKISCKASGYTFTDYNMDWVKQSHGKSLEWIGDINPNYDSTSYNQKFKGKATLTVDKSSSTAYMELRSLTSEDTAVYYCARSRSYDYEGFAYWGQGTLVTVSA
VL: DIQMTQSPASLSASVGETVTITCRASGNIHNYLAWYQQKQGKSPQLLVYNAKTLADGVPSRFSGSGSGTQYSLKINSLQPEDFGSYYCQHFWSTLTFGAGTKLELKR
notes: mouse hybridoma antibody; also called anti-CAPRIN-1 mouse monoclonal antibody #12; anti-CAPRIN-1 monoclonal antibody #12
B7: mouse monoclonal antibody #14 (antibody, V domains shown)
VH: EVQLHQFGAELVKPGASVKISCKASGYTFTDYNMDWVKQSHGKSLEWIGDINPNYDSTSYNQKFKGKATLTVDKSSSTAYMELRSLTSEDTAVYYCARSRSYDYEGFAYWGQGTLVTVSA
VL: DIQLTQSPASLSASVGETVTITCRASGNIHNYLAWYQQKQGKSPQLLVYNAKTLADGVPSRFSGSGSGTQYSLKINSLQPEDFGSYYCQHFWSTLTFGGGTKLEIKQ
notes: mouse hybridoma antibody; also called anti-CAPRIN-1 mouse monoclonal antibody #14; anti-CAPRIN-1 monoclonal antibody #14
B8: mouse monoclonal antibody #15 (antibody, V domains shown)
VH: EVQLHQFGAELVKPGASVKISCKASGYTFTDYNMDWVKQSHGKSLEWIGDINPNYDSTSYNQKFKGKATLTVDKSSSTAYMELRSLTSEDTAVYYCARSRSYDYEGFAYWGQGTLVTVSA
VL: SGDRVSLSCRASQSISNYLHWYQQKSHESPRLLIKYASQSISGIPSRFSGSGSGTDFTLSINSVETEDFGMYFCQQSNSWPYTFGAGTKLEIKQ
notes: mouse hybridoma antibody; also called anti-CAPRIN-1 mouse monoclonal antibody #15; anti-CAPRIN-1 monoclonal antibody #15
B9: mouse monoclonal antibody #13 (antibody, V domains shown)
VH: EVQLHQFGAELVKPGASVKISCKASGYTFTDYNMDWVKQSHGKSLEWIGDINPNYDSTSYNQKFKGKATLTVDKSSSTAYMELRSLTSEDTAVYYCARSRSYDYEGFAYWGQGTLVTVSAAKTTPPSVY
VL: AVLRCSRGLLVIWISDIQLTQSPSSLAVTAGEKVTMSCKSSQSLLWSVNQKNYLSWYQQKQRQPPKLLIYGASIRESWVPDRFTGSGSGTDFTLTISNVHAEDLAVYYCQHNHGSFLPSRSEQVPSWRSNNR
notes: mouse hybridoma antibody; also called anti-CAPRIN-1 mouse monoclonal antibody #13; anti-CAPRIN-1 monoclonal antibody #13
B10: mouse anti-CAPRIN-1 antibody #31 (antibody, V domains shown)
VH: GPELVKPGASVKISCKASGYSFTGYFMNWVMQSHGKSLEWIGRINPYNGDTFYNQKFKGKATLTVDKSSSTAHMELRSLASEDSAVYYCARRIHYYYGSSYYAMDYWGQEPHH
VL: DVQITQSPSYLAASPGETITINCRASKSISKYLAWYQEKPGKTNKLLIYSGSTLQSGIPSRFSGSGSGTDFTLTISSLEPEDFAMYYCQQHNEYPWTFGGGTKLEIKR
notes: mouse hybridoma antibody; also called mouse anti-CAPRIN-1 monoclonal antibody #31
B11: mouse monoclonal antibody #18 (antibody, V domains shown)
VH: LQESGAELARPGASVKLSCKASGYTFTSYWMQWVKQRPGQGLEWIGAIYPGDGDTRYTQKFKGKATLTADKSSSTAYMQLSSLASEDSAVYYCARGEYGNYFAYWGQGTTVTVSS
VL: TSDASLGERVTITCKASQDINSYLSWFQQKPGKSPKTLIYRANRLVDGVPSRFSGSGSGQDYSLTISSLEYEDMGIYYCLQYDEFPLTFGGGTKLEIKQ
notes: mouse hybridoma antibody; also called anti-CAPRIN-1 mouse monoclonal antibody #18; anti-CAPRIN-1 monoclonal antibody #18
B12: mouse monoclonal antibody #3 (antibody, V domains shown)
VH: GGGLVKPGGSLKLSCAASGFTFSSYGMSWVRQTPEKRLEWVATISSGGSYTYYPDSVKGRFTISRDNAKNTLYLQMSSLRSEDTAMYYCASLASYYFDYWGQGTTLTVSS
VL: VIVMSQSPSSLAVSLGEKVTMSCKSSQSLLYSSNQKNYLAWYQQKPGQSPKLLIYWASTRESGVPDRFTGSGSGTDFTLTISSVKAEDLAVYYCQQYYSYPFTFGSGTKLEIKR

Tests used:
[1] = biological target: T1, CAPRIN-1 protein expressed on the cell …; assay: flow cytometry, TGBC14TKB cells, culture supernatant, isotype control antibody as control
Description: Subsequently, a gallbladder cell line TGBC14TKB, which was confirmed to express a CAPRIN-1 gene, was investigated for whether or not a CAPRIN-1 protein is expressed on the surfaces of these cells. 1×10⁶ cells of TGBC14TKB were centrifuged with a 1.5-mL micro centrifugation tube. To the cells was added the culture supernatant (100 μL) containing any of anti-CAPRIN-1 mouse monoclonal antibodies #1 to #22 reacting to cancer cell surface produced in Example 4 and anti-CAPRIN-1 mouse-chicken chimeric antibodies #1 to #3 produced in the above (2), followed by being left to stand on ice for 1 hour. After washing with PBS, the cells were suspended in a FITC-labeled goat anti-mouse IgG antibody (manufactured by life technologies) diluted by 500-fold with PBS containing 0.1% FBS, followed by being left to stand on ice for 1 hour. After washing with PBS, the fluorescence intensity was measured with FACS Calibur available from Becton, Dickinson and Company. Separately, as a control, the same procedure as in above was performed using an iso-type control antibody, instead of the culture supernatants containing the anti-CAPRIN-1 mouse monoclonal antibodies #1 to #22 and the mouse-chicken chimeric antibodies #1 to #3. As a result, the fluorescence intensity in the cells to which any of the monoclonal antibodies #1 to #22 and the mouse-chicken chimeric antibodies #1 to #3 was added was 20% or more higher than that in the control in every case. Specifically, in the case of using mouse-chicken chimeric antibody #1, the fluorescence intensity was enhanced by 200% or more. […] The rate of increase in the fluorescence intensity is represented by the rate of increase in the mean fluorescence intensity (MFI value) in each cell and is calculated by the following calculation formula: […]

[2] = biological target: T1, CAPRIN-1 protein expressed on the cell …; assay: cell-based or functional assay
[3] = biological target: T1, CAPRIN-1 protein expressed on the cell …; assay: flow cytometry, TGBC14TKB cells, antibody 20 ug/mL, secondary antibody only as control
Description: (§1) A human gallbladder cancer cell line TGBC14TKB was investigated whether or not a CAPRIN-1 protein is expressed on the cell surface. 5×10⁵ cells of the gallbladder cancer cell line were centrifuged with a 1.5-mL micro centrifugation tube. The cells were subjected to reaction with each mouse anti-CAPRIN-1 antibody at a final concentration of 20 μg/mL, followed by being left to stand on ice for 1 hour. After washing with PBS, the cells were reacted with a 100-fold diluted Alexa488-labeled goat anti-mouse IgG antibody (manufactured by life technologies), followed by being left to stand on ice for […]. After washing with PBS, the fluorescence intensity was measured with FACS Calibur available from Becton, Dickinson and Company. As a negative control, only the secondary antibody was used in the reaction.
as §1, with “cell surface using mouse anti-CAPRIN-1 monoclonal antibodies #30 to #36.” for “cell surface.”, “of TGBC14TKB” for “of the gallbladder cancer cell line”, “each of” for “each”, “anti-CAPRIN-1 antibodies #30 to #36” for “anti-CAPRIN-1 antibody”, “Company. Separately, the cells were subjected to reaction with” for “Company. As a negative control,”, “antibody as a negative control.” for “antibody was used in the reaction.”

Binder | rate of increase in mean fluorescence intensity over control [1] | cytotoxicity (ADCC, 51Cr release) on TGBC14TKB, human NK cells [2] | increase in fluorescence intensity over control [3]
B1 | ≥ 20% |  | 
B2 | ≥ 20% | ≥ 15% | 
B3 |  |  | ≥ 35%
B4 | ≥ 20% | ≥ 15% | 
B5 | ≥ 20% |  | 
B6 | ≥ 20% | ≥ 15% | 
B7 | ≥ 20% | ≥ 15% | 
B8 | ≥ 20% | ≥ 15% | 
B9 | ≥ 20% | ≥ 15% | 
B10 |  |  | ≥ 35%
B11 | ≥ 20% | ≥ 15% | 
B12 | ≥ 20% | ≥ 15% | 
